For the test, the target named is HLA-A*24 (human). As to the kind of experiment: UV-exchange ELISA (anti-b2m); yield 50%-75%. (In general: An ELISA detects its analyte on a solid surface through an enzyme-linked reagent.)
As for IYGFFNENF, the peptide exchange yield was in the range of 50 to 75%.

With RYFKGDYSI, the peptide exchange yield was 50 to 75%.

NYAFLHRTL yielded a peptide exchange yield of 50 to 75%.

As to VYPAEQPQI, the peptide exchange yield lay within 50 to 75%.

In turn, VYFEGSDFKF showed a peptide exchange yield of 50 to 75%.

Molecule KYQNVKHNL had a peptide exchange yield of 50 to 75%.

Regarding VYLPKIPSW, the peptide exchange yield lay within 50 to 75%.

For IFHEVPLKF, the peptide exchange yield is 50 to 75%.

On to QYSIISNVF, for which the peptide exchange yield fell in the range of 50 to 75%.

KYGNFIDKL displayed a peptide exchange yield of 50 to 75%.

VYKDSIYYI registered a peptide exchange yield of 50 to 75%.

As for SYVKVLHHL, the peptide exchange yield fell in the range of 50 to 75%.

In turn, VYAEVNSL had a peptide exchange yield of 50 to 75%.

In the case of TYSNSAFQYF, the peptide exchange yield fell in the range of 50 to 75%.

With EYNEVANLF, the peptide exchange yield lay within 50 to 75%.

Molecule LYPQLFVVL had a peptide exchange yield of 50 to 75%.

As to FYTFPFQQL, the peptide exchange yield lay within 50 to 75%.

Take QYPYLQAFF: the peptide exchange yield lay in the range of 50 to 75%.

For the molecule KYTDWTEFL, the peptide exchange yield is 50 to 75%.

VYQKIILKF returned a peptide exchange yield of 50 to 75%.

In the case of VYNEQIRDLL, the peptide exchange yield is 50 to 75%.

Consider SFTKTSPNF, for which the peptide exchange yield lay in the range of 50 to 75%.

For the molecule SYLTQHQRI, the peptide exchange yield lay in the range of 50 to 75%.

With SYTSVLSRL, the peptide exchange yield fell in the range of 50 to 75%.

EYNSDLHQFF returned a peptide exchange yield of 50 to 75%.

For the molecule NYSPGLVSLIL, the peptide exchange yield lay within 50 to 75%.

Molecule LYLPVHYGF displayed a peptide exchange yield of 50 to 75%.

VFSPDGHLF came in with a peptide exchange yield of 50 to 75%.

VHFEDTGKTLLF displayed a peptide exchange yield of 50 to 75%.

In the case of RFPVQGTVTF, the peptide exchange yield fell in the range of 50 to 75%.

In turn, VFDTSIAQLF displayed a peptide exchange yield of 50 to 75%.

The molecule VYAIFRILL showed a peptide exchange yield of 50 to 75%.

On to IYAPTLLVF, for which the peptide exchange yield lay within 50 to 75%.

Regarding GYAFTLPLF, the peptide exchange yield lay in the range of 50 to 75%.

As for RYILENHDF, the peptide exchange yield lay in the range of 50 to 75%.

Consider VYVGDALLHAI, for which the peptide exchange yield lay in the range of 50 to 75%.

With DYLKDPVTI, the peptide exchange yield was in the range of 50 to 75%.

Take KYLESSATF: the peptide exchange yield was 50 to 75%.

IFIDNSTQPLHF returned a peptide exchange yield of 50 to 75%.

NYLVDPVTI: the peptide exchange yield lay in the range of 50 to 75%.

Molecule EYNSDLHQF came in with a peptide exchange yield of 50 to 75%.

For FYIPHVPVSF, the peptide exchange yield was 50 to 75%.

QYGGDLTNTF came in with a peptide exchange yield of 50 to 75%.

AYAQLGYLL showed a peptide exchange yield of 50 to 75%.

For VYTKALSSL, the peptide exchange yield lay in the range of 50 to 75%.

In turn, EYQEIFQQL returned a peptide exchange yield of 50 to 75%.

Take TYADIGGLDNQI: the peptide exchange yield fell in the range of 50 to 75%.

TYPSQLPSL registered a peptide exchange yield of 50 to 75%.

In the case of SYLELANTL, the peptide exchange yield fell in the range of 50 to 75%.

On to IYGEKLQFIF, for which the peptide exchange yield fell in the range of 50 to 75%.

In turn, TYGKIDLGF yielded a peptide exchange yield of 50 to 75%.

Consider YYLGSGRETF, for which the peptide exchange yield lay in the range of 50 to 75%.

Regarding IYLEHTESI, the peptide exchange yield fell in the range of 50 to 75%.

As for VWLPASVLF, the peptide exchange yield lay in the range of 50 to 75%.

The molecule LYSVIKEDF returned a peptide exchange yield of 50 to 75%.

In the case of IYNPNLLTASKF, the peptide exchange yield was 50 to 75%.

NYLGGTSTI had a peptide exchange yield of 50 to 75%.

In turn, YYSQESKVLYL gave a peptide exchange yield of 50 to 75%.

The molecule IYVTGGHLF registered a peptide exchange yield of 50 to 75%.

Consider SYLVIHERI, for which the peptide exchange yield lay within 50 to 75%.

On to YYFFVQEKI, for which the peptide exchange yield was in the range of 50 to 75%.

Turning to QYLELAHSL, the peptide exchange yield lay in the range of 50 to 75%.

TFDGHGVFF came in with a peptide exchange yield of 50 to 75%.

As to VFGKSAYLF, the peptide exchange yield is 50 to 75%.

The molecule KYVGQLAVL came in with a peptide exchange yield of 50 to 75%.

YYSEVPVKL: the peptide exchange yield is 50 to 75%.

Regarding KYQYVLNEF, the peptide exchange yield lay within 50 to 75%.

VYGEPRELL yielded a peptide exchange yield of 50 to 75%.

The molecule KYLNENQLSQL showed a peptide exchange yield of 50 to 75%.
